Measurements from patent US20220411495A1, “POSITIVE ALLOSTERIC MODULATORS OF THE CALCIUM-SENSING RECEPTOR” (VIB VZW, priority 2019, published 2022).

Assays:
[1] = clinical development; cited from earlier work
[2] = target: T1, human CaSR wild type (hCaSR WT) (Homo sapiens, UniProt P41180, E1011Q); test: Advanced phospho-ERK1/2 assay, HEK293 HA-hCaSR WT cells; assay type: cell-based; conditions: 5 μM nanobody, EC20 Ca2+
T1 construct: mGlu5 signal peptide (N, cleaved yes); expressed in transfected cells
T1 sequence (P41180 20-1078 E1011Q): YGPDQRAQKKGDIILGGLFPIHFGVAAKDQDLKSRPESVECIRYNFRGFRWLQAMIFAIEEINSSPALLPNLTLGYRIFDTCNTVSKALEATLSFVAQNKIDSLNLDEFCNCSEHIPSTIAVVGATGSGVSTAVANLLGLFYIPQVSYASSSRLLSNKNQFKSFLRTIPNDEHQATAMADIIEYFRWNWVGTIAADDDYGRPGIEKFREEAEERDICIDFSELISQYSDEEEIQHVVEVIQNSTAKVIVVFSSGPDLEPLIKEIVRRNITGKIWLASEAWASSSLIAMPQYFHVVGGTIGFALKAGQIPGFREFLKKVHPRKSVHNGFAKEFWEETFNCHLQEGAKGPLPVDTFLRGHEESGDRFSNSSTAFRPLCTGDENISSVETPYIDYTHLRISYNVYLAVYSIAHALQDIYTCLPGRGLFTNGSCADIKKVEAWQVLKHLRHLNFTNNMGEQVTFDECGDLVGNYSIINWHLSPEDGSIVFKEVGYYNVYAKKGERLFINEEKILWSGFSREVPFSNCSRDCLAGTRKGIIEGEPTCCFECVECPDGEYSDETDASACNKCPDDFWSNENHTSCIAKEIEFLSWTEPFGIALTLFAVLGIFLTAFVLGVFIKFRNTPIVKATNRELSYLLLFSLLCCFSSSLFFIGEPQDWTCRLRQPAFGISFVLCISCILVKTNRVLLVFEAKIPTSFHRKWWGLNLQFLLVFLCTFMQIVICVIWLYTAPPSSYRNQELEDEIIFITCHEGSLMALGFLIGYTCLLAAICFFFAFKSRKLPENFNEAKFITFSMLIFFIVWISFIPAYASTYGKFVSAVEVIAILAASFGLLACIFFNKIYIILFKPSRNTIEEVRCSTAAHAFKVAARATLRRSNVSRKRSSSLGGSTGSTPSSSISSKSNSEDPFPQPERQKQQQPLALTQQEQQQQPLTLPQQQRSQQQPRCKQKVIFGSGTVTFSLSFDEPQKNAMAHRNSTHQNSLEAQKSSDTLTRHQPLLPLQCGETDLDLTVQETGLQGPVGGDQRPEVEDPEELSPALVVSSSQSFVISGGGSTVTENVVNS
Protocol: Nanobodies were successfully purified by immobilized metal ion affinity chromatography (IMAC) and size exclusion chromatography (SEC) prior to pharmacological characterization (FIG. 1). Each nanobody was initially screened for Gq/11 activity in the Cisbio IP1 accumulation assay as this is the primary signaling pathway of CaSR (Chavez-Abiega et al., 2020). Whole HEK293 HA-hCaSR WT cells were pre-incubated for 30 minutes at 37° C. with a fixed nanobody concentration (5 μM) prior to stimulation with the endogenous ligand Ca^2+. The well characterized positive allosteric modulator (PAM) chemical NPS R-568 and negative allosteric modulator (NAM) chemical NPS 2143 were added as reference compounds. […] No nanobodies with agonist or NAM activity were observed when all nanobodies screened in the absence or in the presence of EC80 Ca^2+, respectively (FIGS. 4A and 4B). […] Except for CaSR Nb5, the same nanobodies acted as PAMs when ERK1/2 phosphorylation was measured in the presence of EC20 Ca^2+ (FIG. 2B). Again, none of the nanobodies elicited an agonist or NAM response (FIGS. 5B and 5C).
Phosphorylation of ERK1/2 at T202 and Y204 was measured with the HTRF® Advanced Phospho-ERK1/2 assay (Cisbio Bioassays, Codolet, France). […] Upon excitation at 340 nm, emission at 615 and 665 nm was measured on an EnVision multimode plate reader (PerkinElmer, Waltham, Mass., USA). […]

[3] = target: T2, extracellular Venus flytrap domain of CaSR (Homo sapiens, UniProt P41180); test: Surface plasmon resonance on isolated purified Venus flytrap domain; assay type: binding
T2 sequence (P41180 20-610 limits assumed): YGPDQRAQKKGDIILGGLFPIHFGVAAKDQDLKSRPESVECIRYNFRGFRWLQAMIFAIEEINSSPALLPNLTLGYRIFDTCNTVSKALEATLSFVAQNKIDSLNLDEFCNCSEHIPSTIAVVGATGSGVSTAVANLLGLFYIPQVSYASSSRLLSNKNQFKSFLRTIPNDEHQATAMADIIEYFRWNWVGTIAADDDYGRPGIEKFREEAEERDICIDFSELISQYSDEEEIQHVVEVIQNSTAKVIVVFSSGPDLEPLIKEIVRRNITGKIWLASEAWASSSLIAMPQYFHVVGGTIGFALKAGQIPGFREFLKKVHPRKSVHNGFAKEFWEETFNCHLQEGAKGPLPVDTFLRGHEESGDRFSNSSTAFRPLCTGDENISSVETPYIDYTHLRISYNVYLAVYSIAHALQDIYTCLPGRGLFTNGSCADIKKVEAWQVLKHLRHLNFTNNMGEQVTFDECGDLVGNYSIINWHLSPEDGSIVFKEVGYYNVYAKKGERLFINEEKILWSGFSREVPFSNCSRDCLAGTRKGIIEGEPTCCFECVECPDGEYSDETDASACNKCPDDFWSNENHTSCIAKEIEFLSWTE

## COc1cccc([C@@H](C)NCCCc2ccccc2Cl)c1 [NPS R-568, reference compound]
[1]
  Oral bioavailability: < 5%

B1: Nb5: llama-derived CaSR-specific nanobody, weakest PAM, SEQ ID NO:8 (protein)
VHH: QVQLVESGGRLVQDGGSLRLSCAASGLTFSDYSMGWFRQVPGKEREFVAVIRRSNDSTYYADFVKGRFTISRDNAKNTVYLQMNSLQPEDTAVYSCAADRGGVGLTSAQTYAYWGQGTQVTVSS
modifications: CaSR Nb5
[2]
  PAM activity in phospho-ERK1/2 assay: could not be confirmed

B2: Nb4: llama-derived CaSR-specific nanobody acting as PAM, SEQ ID NO:5 (protein)
VHH: QVQLVESGGGLVQAGGSLRLSCAASGRTFSTYRMGWFRQGLGKEREFVAAITANGVRTFYTDSVKGRFTISRDNAKNTLYLQMNSLQPDDTAVYLCAARRKGIFTVQQAQDITDWDYWGQGTQVTVSS
modifications: CaSR Nb4
[3]
  Binding to isolated Venus flytrap domain (SPR): binds
[3]; Ca2+ and/or L-Trp
  Dependence of binding affinity on endogenous ligands (SPR): synergistically increases upon the presence of both ligands
